# Experimental data published in patent US20240287172A1 (SCIRHOM, published 2024).
# Where a chain is given by its changes, count along the chain named.
# T1: hiR2-FL-I566E-T7 (human, UniProt Q6PJF5 1-856)
# T1 construct: on MEF-DKO cells; also called hiR2-FL-1566E-T7
# T1 sequence: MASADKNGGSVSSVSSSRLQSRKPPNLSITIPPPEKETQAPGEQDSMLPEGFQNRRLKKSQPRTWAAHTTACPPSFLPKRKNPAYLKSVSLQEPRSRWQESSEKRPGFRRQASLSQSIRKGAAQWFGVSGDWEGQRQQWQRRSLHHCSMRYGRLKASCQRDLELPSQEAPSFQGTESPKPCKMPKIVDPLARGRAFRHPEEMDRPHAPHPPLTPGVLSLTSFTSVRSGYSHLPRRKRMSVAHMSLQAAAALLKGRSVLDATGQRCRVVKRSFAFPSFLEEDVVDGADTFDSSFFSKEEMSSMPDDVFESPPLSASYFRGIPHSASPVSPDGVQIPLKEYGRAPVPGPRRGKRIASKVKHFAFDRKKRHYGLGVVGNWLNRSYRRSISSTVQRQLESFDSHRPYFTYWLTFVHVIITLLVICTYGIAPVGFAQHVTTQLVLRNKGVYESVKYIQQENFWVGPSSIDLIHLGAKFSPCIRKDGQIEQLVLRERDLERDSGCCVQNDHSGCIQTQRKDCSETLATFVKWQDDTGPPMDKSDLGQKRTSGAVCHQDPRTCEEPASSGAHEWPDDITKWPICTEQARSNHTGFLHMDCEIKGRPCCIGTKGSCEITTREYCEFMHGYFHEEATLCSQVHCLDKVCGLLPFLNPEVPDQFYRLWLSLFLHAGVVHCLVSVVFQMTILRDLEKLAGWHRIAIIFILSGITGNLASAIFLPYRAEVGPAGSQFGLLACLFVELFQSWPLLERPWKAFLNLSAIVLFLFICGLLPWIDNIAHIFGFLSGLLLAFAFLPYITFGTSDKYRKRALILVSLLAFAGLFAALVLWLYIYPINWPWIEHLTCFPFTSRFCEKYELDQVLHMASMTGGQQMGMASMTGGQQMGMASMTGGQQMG
# B1: antibody 5 (antibody, V domains shown)
# VH: QVTLKESGPGILQPSQTLSLTCSFSGFSLSTFGMGVGWIRQPSGKGLEWLAHIWWDDEKYYNSALKSRLTISKATSKNQAFLKIANVDTADTATYYCARISNYGSNYWYFNVWGTGTTVTVSS
# VL: QVVLTQSPALMSASPGEKVTMTCSAGSSVSCMYWYQQKPGSSPRVLIYDTSNLASGVPARFTGSGSGTSYSLTISRMEAEDAASYYCQQWNSYPLTFGAGTKLELK
# notes: mouse IgG, kappa light chain; also called clone #5; purified antibody 5
# B2: antibody 42 (antibody, V domains shown)
# VH: B1 VH with F24L, M34R, S63P, A74D, A80V, K83R, S101Q, N111D
# VL: LIVLTQSPAIMSASPGEKVTMTCGATSRISYMFWYQQKPGSSPRVLIYDTSNLASGVPVRFSGSGSGTSYSLTISRVEAEDVATYYCQQWNSYPLTFGAGTKLELK
# notes: mouse IgG, kappa light chain; also called clone #42; purified antibody 42
# B3: antibody 43 (antibody, V domains shown)
# VH: B1 VH with T3A, P42S, H52N, E58D, S63P, A74D, T75A, S101G, N111D
# VL: B2 VL with L1Q, K18R, G24S, T26N, F33Y, V45L, V77M, V82A, Y86N, N91S
# notes: mouse IgG, kappa light chain; also called clone #43; purified antibody 43
# B4: antibody 44 (antibody, V domains shown)
# VH: B1 VH with G44E, E58D, S63P, A74D, A80I, A85T, D91E, A98S, S101G, N111D
# VL: QIVLTQSPAVMSASPGEKVTMTCTASSSVYYMYWYQQTPGSSPRLLIYDTSNLASGVPVRFSGSGSGTSYSLTISRMEAEDAATYYCQQWNTYPLTFGAGTKLELK
# notes: mouse IgG, kappa light chain; also called clone #44; purified antibody 44
# B5: antibody 22 (antibody, V domains shown)
# VH: B1 VH with A80V
# VL: B1 VL with C31Y, S84T
# notes: mouse IgG, kappa light chain; also called clone #22; purified antibody 22
# B6: antibody 3 (antibody, V domains shown)
# VH: QVTLKESGPGILQPSQTLSLTCSFSGFSLTTFAMGIGWVRQPSGKGLEWLAHIWWDGEKYNNPVLKSRLTISKDTSKNQVFLRIANVDTPDTATYYCARISSIYYIIDNWGQGTSVTVSS
# VL: DIVLTQSPATLSVTPGHSVSLSCRASQSISNNLHWYQKKSHESPRLLIKYVSQSISGIPSRFSGSGSGTDFTLSINSVETEDFGMYFCQQSYNWPLTFGAGTKLELK
# notes: mouse IgG, kappa light chain; also called clone #3; purified antibody 3
# B7: antibody 34 (antibody, V domains shown)
# VH: QVTLKESGPGILQPSQTLSLTCSFSGFSLSTFSLGVGWIRQSSGKGLEWLAHIWWDDEKYYNPALKSRLTISKDTSKNQVFLKIANVDAADTATYYCARAYYSKSYYALDYWGQGTSVTVSS
# VL: DIQMTQSPSSLSASLGERVSLTCRASQEISGYLSWLQQKPDGTIKRLIYAASTLDSGVPKRFSGSRSGSDYSLAISSLESEDFADYYCLQYANFPFTFGSGTKLEIK
# notes: mouse IgG, kappa light chain; also called clone #34; purified antibody 34
# Biological target: T1, hiR2-FL-I566E-T7
# Assay: FACS, MEF-DKO cells, 3 µg/ml
# Text: In brief, immortalized MEF-DKO hiR2-FL-G563D-T7, MEF-DKO hiR2-FL-A564P-T7, MEF-DKO hiR2-FL-1566E-T7, MEF-DKO hiR2-FL-D569E-T7, MEF-DKO hiR2-FL-E579K-T7, MEF-DKO hiR2-FL-Q580N-T7, MEF-DKO hiR2-FL-A581S-T7, MEF-DKO hiR2-FL-R582A-T7, MEF-DKO hiR2-FL-S583G-T7, MEF-DKO hiR2-FL-G587N-T7, MEF-DKO hiR2-FL-F588H-T7, MEF-DKO hiR2-FL-L589P-T7, MEF-DKO hiR2-FL-E594V-T7, MEF-DKO hiR2-FL-K596T-T7, MEF-DKO hiR2-FL-S607R-T7, MEF-DKO hiR2-FL-T612S-T7, MEF-DKO hiR2-FL-E617D-T7, MEF-DKO hiR2-FL-H620R-T7, MEF-DKO hiR2-FL-L636M-T7, MEF-DKO hiR2-FL-K638D-T7, MEF-DKO hiR2-FL-1771F-T7, MEF-DKO hiR2-FL-1825V-T7, MEF-DKO hiR2-FL-1828V-T7, MEF-DKO hiR2-FL-N829R-T7, MEF-DKO hiR2-FL-W830C-T7, MEF-DKO hiR2-FL-P831E-T7, MEF-DKO hiR2-FL-I833C-T7, MEF-DKO hiR2-FL-H835F-T7, MEF-DKO hiR2-FL-F8391-T7, MEF-DKO hiR2-FL-S843D-T7, MEF-DKO hiR2-FL-Q853A-T7, MEF-DKO hiR2-FL-V854Q-T7 and MEF-DKO hiR2-FL-R844K-T7 cells were harvested with 10 mM EDTA in PBS, washed and resuspended in FACS buffer (PBS, 3% FBS, 0.05% sodium azide), and seeded in Nunc U-bottom 96-well plates (Thermo Fisher Scientific, USA) at approximately 1×10⁵ cells per well. To pellet cells and remove supernatants, the plates were centrifuged at 1,500 rpm and 4° C. for 3 minutes. For primary staining, cells were resuspended in 100 μl per well of either FACS buffer alone (controls) or the purified antibodies 3, 5, 16, 22, 34, 42, 43, 44, 48, and 50 of the invention at 3 μg/ml in FACS buffer and incubated on ice for 1 hour. Afterwards, plates were centrifuged at 1,500 rpm and 4° C. for 3 minutes and washed twice with 200 μl per well of FACS buffer. For secondary staining, cells were spun down and resuspended in 100 μl per well of PE-conjugated goat anti-mouse IgG F(ab′)2 detection fragment (Dianova, Germany) diluted 1:100 in FACS buffer. Protected from light, the cell suspensions were incubated on ice for 1 hour. Plates were then centrifuged at 1,500 rpm and 4° C. for 3 minutes and washed three times with 200 μl per well of FACS buffer. Finally, cells were resuspended in 150 μl per well of FACS buffer and analyzed using a BD Accuri™ C6 Plus flow cytometer (Becton Dickinson, Germany).
row,Binder,loss of binding vs wild type
1,B1,≥ 95%
2,B2,≥ 60%
3,B3,≥ 60%
4,B4,≥ 60%
5,B5,≥ 60%
6,B6,≥ 30%
7,B7,≥ 60%
